Holding throughout (test): ITC
(Isothermal titration calorimetry measures the heat released or taken up as one component is titrated into another.)

Assay [1] deals with Alanine mutations of MRG15 L168 and W172 (human).
Assay [2] has as its target human MRG15 MRG W172A (human, UniProt Q9UBU8-2 155-323, alanine mutation of W172).
Assay [3] concerns the target human MRG15 MRG domain (residues 155-323) (human, UniProt Q9UBU8-2 155-323).
Assay [4] deals with human MRG15 MRG L287A (human, UniProt Q9UBU8-2 155-323, alanine mutation of L287).
Sequence of human MRG15 MRG L287A (Q9UBU8 194-362 L326A): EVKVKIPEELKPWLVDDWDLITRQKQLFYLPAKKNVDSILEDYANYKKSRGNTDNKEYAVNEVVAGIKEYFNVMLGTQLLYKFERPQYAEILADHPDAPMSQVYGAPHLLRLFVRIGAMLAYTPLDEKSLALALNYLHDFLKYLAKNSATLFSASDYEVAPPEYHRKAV
Assay [5] deals with human MRG15 MRG L168A (human, UniProt Q9UBU8-2 155-323, alanine mutation of L168).
Sequence of human MRG15 MRG L168A (Q9UBU8 194-362 L207A): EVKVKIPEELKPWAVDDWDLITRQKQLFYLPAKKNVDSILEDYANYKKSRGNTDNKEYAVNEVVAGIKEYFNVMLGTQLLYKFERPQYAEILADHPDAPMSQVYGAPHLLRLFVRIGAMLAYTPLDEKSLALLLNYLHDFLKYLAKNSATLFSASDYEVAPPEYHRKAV

Several values for one entry are separate records, joined by “and”; a condition that tells them apart may be missing. Equal entries are not always repeated.

Sequence of human MRG15 MRG domain (residues 155-323) (Q9UBU8 194-362): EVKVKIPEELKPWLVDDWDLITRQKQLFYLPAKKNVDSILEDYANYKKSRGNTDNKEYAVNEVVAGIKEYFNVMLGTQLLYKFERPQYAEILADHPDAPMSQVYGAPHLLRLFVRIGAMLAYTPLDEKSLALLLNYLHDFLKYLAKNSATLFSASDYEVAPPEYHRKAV
Sequence of human MRG15 MRG W172A (Q9UBU8 194-362 W211A): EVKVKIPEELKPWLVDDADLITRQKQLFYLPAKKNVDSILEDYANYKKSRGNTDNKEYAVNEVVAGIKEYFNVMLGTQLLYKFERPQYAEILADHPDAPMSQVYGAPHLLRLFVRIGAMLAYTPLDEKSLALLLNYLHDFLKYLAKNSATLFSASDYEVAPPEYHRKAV

“human MRGBP MRG-binding domain (residues 69-119) (from UniProt Q9NV56 69-119) (domain or fragment)”: the fold reduction in binding affinity in assay [1] was 7 fold and 8 fold.

B1: human MRGBP MRG-binding domain (residues 69-119) (domain or fragment, UniProt Q9NV56 69-119, looked up)
chain: GRQVPSKVIWDHLSTMYDMQALHESEILPFPNPERNFVLPEEIIQEVREGK
As usually defined, the Kd is a measure of binding affinity in units of concentration. Low readings indicate a tighter complex, high ones a looser complex. Regarding B1, the binding result in assay [2] and in assay [5] was “binds” in each case. In assay [3], this molecule displayed a Kd of approximately 60 nM. Further, the “fold effect on binding” value in assay [4] is more than 2 fold.

B2: human MRGBP MBD I112A (domain or fragment, UniProt Q9NV56 69-119, looked up)
chain: GRQVPSKVIWDHLSTMYDMQALHESEILPFPNPERNFVLPEEIAQEVREGK
On to B2, for which the “fold decrease in binding affinity relative to wild-type” value in assay [3] is approximately 13 fold.

B3: human MRGBP MBD M84A (domain or fragment, UniProt Q9NV56 69-119, looked up)
chain: GRQVPSKVIWDHLSTAYDMQALHESEILPFPNPERNFVLPEEIIQEVREGK
Regarding B3, in assay [3], the “fold decrease in binding affinity relative to wild-type” value is approximately 3 fold.

B4: human PALB2 MBD (residues 579-629) (domain or fragment, UniProt Q86YC2 579-629, looked up)
chain: AYLSLDDDAFTAPFHRDGMLSLKQLLSFLSITDFQLPDEDFGPLKLEKVKS
B4: in assay [3], the Kd is approximately 20 nM.

Source of the values: PMC4456287 (Structure (London, England : 1993), 2015).
